From the supplement of paper PMC7877785
± gives the uncertainty stated by the source.

Experiment: self-splicing fitness, log relative to wild type (ln ratio); higher = more splicing; Tetrahymena group I intron in knt gene, E. coli kanamycin selection, DiMSum; sequences stand for … in CUCUCU…GGAGGGAAAAGUUAUCAGGCAUGCACCUGGUAGCUAGUCUUUAAACCAAUAGAUUGCAUCGGUUUAAAAGGCAAGACCGUCAAAUUGCGGGAAAGGGGUCAACAGCCGUUCAGUACCAAGUCUCAGGGGAAACUUUGAGAUGGCCUUGCAAAGGGUAUGGUAAUAAGCUGACGGACAUGGUCCUAACCACGCAGCCAAGUCCUAAGUCAACAGAUCUUCUGUUGAUAUGGAUGCAGUUCACAGACUAAAUGUCGGUCGGGGAAGAUGUAUUCUUCUCAUAAGAUAUAGUCGGACCUCUCCUUAAUGGGAGCUAGCGGAUGAAGUGAUGCAACACUGGAGCCGCUGGGAACUAAUUUGUAUGCGAAAGUAUAUUGAUUAGUUUUGGAGUACUCGUGGUCG
Outline: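 Fitness was computed with DiMSum as the error-weighted combination of replicate fold changes, kanamycin versus none, each normalised to wild type. The library randomised all eight intron nucleotides of the P1ex region, with the intron placed in the knt kanamycin-resistance gene on pET-22b(+) in E. coli BL21(DE3). Six replicate transformations were grown overnight at 37°C or 30°C on LB agar with or without 25 μg/mL kanamycin, plus 100 μg/mL carbenicillin, 50 μM IPTG and 0.2% rhamnose. Pooled colonies were amplicon-sequenced on an Illumina HiSeq 2500.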

| Sequence | self-splicing fitness (ln) (30 °C) | self-splicing fitness (ln) (37 °C) |
| --- | --- | --- |
| ACACAGCAAUAUUACGCCGC | -3.21 ± 0.34 | -1.68 ± 0.16 |
| GCGAAGCAAUAUUACGCUUC | -4.53 ± 0.46 | -2.58 ± 0.29 |
| UUUCAGCAAUAUUACGCUAC | -2.95 ± 0.22 | -2.39 ± 0.34 |
| GCAAAGCAAUAUUACGACCA | -0.267 ± 0.15 | -0.678 ± 0.19 |
| UGCCAGCAAUAUUACGCCCA | 0.23 ± 0.099 | -0.149 ± 0.13 |
| GGCAAGCAAUAUUACGGGGC | -2.62 ± 0.42 | -1.5 ± 0.32 |
| CACGAGCAAUAUUACGAAAU | -2.18 ± 0.19 | -2.81 ± 0.29 |
| GAGUAGCAAUAUUACGUGCA | -1.35 ± 0.14 | 0.558 ± 0.2 |
| GGUCAGCAAUAUUACGUUGA | -3.12 ± 0.27 | -1.76 ± 0.25 |
| GGUUAGCAAUAUUACGGCAG | -1.83 ± 0.19 | -1.43 ± 0.21 |
| AACAAGCAAUAUUACGCUCU | -0.638 ± 0.075 | 0.0475 ± 0.089 |
| GCUGAGCAAUAUUACGGGCG | -1.83 ± 0.14 | 0.15 ± 0.15 |
| GACUAGCAAUAUUACGCCUC | -0.374 ± 0.14 | -1.76 ± 0.16 |
| UGGGAGCAAUAUUACGUCGG | -0.491 ± 0.24 |  |
| UUAGAGCAAUAUUACGUGGU | -3.98 ± 0.43 | -2.61 ± 0.39 |
| CGAUAGCAAUAUUACGAGUG | -0.68 ± 0.08 | -0.335 ± 0.096 |
| CCCCAGCAAUAUUACGGGUA | -2.89 ± 0.11 | -1.25 ± 0.073 |
| GCGCAGCAAUAUUACGGUUG | -2.53 ± 0.1 | -3.34 ± 0.19 |
| AUCAAGCAAUAUUACGGCGU | 0.235 ± 0.1 | 0.219 ± 0.11 |
| GGUUAGCAAUAUUACGAUGA | -0.915 ± 0.12 | -0.286 ± 0.13 |
| UUAUAGCAAUAUUACGGCGA | -1.38 ± 0.14 | -0.219 ± 0.18 |
| UGCGAGCAAUAUUACGAGCG | -2.92 ± 0.33 | -2.07 ± 0.3 |
| AGGAAGCAAUAUUACGACAG | -2.74 ± 0.19 | -1.64 ± 0.18 |
| UUCCAGCAAUAUUACGUGCC |  | -2.5 ± 0.39 |

| Sequence | self-splicing fitness (ln) (30 °C) | self-splicing fitness (ln) (37 °C) |
| --- | --- | --- |
| GGACAGCAAUAUUACGUGCU | -0.778 ± 0.11 | -0.685 ± 0.13 |
| GUUGAGCAAUAUUACGCCUA | -1.73 ± 0.26 | -1.92 ± 0.3 |
| AAAGAGCAAUAUUACGUCAU | -2.38 ± 0.37 | -2.45 ± 0.35 |
| CUGGAGCAAUAUUACGAGCA | -2.32 ± 0.46 | -2.63 ± 0.42 |
| CAAAAGCAAUAUUACGACCU | -1.79 ± 0.095 | -0.569 ± 0.084 |
| AGGCAGCAAUAUUACGAGCC | -2 ± 0.14 | -1.4 ± 0.21 |
| AAUUAGCAAUAUUACGCGUC | -2.69 ± 0.16 | -1.1 ± 0.14 |
| GUCUAGCAAUAUUACGGUAC | -0.985 ± 0.14 | -0.625 ± 0.17 |
| CGAUAGCAAUAUUACGGUUC | -3.63 ± 0.27 | -1.96 ± 0.16 |
| ACAGAGCAAUAUUACGUUCC | -2.89 ± 0.32 | -1.81 ± 0.34 |
| GCGAAGCAAUAUUACGUACA | -1.9 ± 0.19 | -1.29 ± 0.14 |
| UAAAAGCAAUAUUACGAGCG | -0.13 ± 0.099 | -0.191 ± 0.11 |
| AACCAGCAAUAUUACGGAUC | -2.84 ± 0.11 | -1.48 ± 0.1 |
| UGAAAGCAAUAUUACGUGGA | -2.89 ± 0.15 | -2.69 ± 0.18 |
| GCAUAGCAAUAUUACGCUAA | -2.72 ± 0.27 | -2.49 ± 0.22 |
| GCGGAGCAAUAUUACGAGCG | -1.01 ± 0.17 | 0.152 ± 0.35 |
| CACUAGCAAUAUUACGACGG | -0.0504 ± 0.083 | -0.117 ± 0.082 |
| UUCAAGCAAUAUUACGCAUC | -3.87 ± 0.29 | -1.81 ± 0.17 |
| ACGAAGCAAUAUUACGUUCU | -1.24 ± 0.07 | -0.898 ± 0.081 |
| CCGUAGCAAUAUUACGGGCG | -2.81 ± 0.17 | -1.34 ± 0.14 |
| GGCUAGCAAUAUUACGUAUC | -0.368 ± 0.098 | -0.254 ± 0.12 |
| UUCAAGCAAUAUUACGUCGC | -4.02 ± 0.3 | -2.17 ± 0.3 |
| ACCCAGCAAUAUUACGAUUC | -1.71 ± 0.046 | -0.7 ± 0.063 |
| CGUUAGCAAUAUUACGUAUG | -2.12 ± 0.097 | -0.357 ± 0.097 |
